From the supplement of paper PMC12764529
± gives the half width of the 95% confidence interval.

Tests used:
[1] = folding stability dG unfold from chymotrypsin proteolysis; higher = more stable
How it was run: (§1)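 Sequencing followed digestion of designed mini-proteins with trypsin and chymotrypsin, each at 11 concentrations in threefold dilutions together with a no-protease condition. The mini-proteins were under 80 residues, had no cysteine, sat in a PA-tagged cDNA display construct, and were kept only if AlphaFold2 dimer inter-PAE was above 15. From the counts, Bayesian fitting gave K50, and unfolding free energy was derived against a sequence-predicted unfolded-state K50 and a shared folded-state K50, per protease or combined.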

[2] = folding stability dG unfold (combined trypsin and chymotrypsin); higher = more stable
How it was run: as §1

[3] = folding stability dG unfold from trypsin proteolysis; higher = more stable
How it was run: as §1

Sequence	folding stability dG unfold [1] [kcal/mol]	folding stability dG unfold [2] [kcal/mol]	folding stability dG unfold [3] [kcal/mol]
SAGGATITLEPGTFTIEFPENELVIPVPVPEERPDVSPEEAAREIVEELREKYGLPPPEDLTVELAPSAGGS [r8_402_JUSTAS]	0.184 ± 0.27	0.273 ± 0.22	0.299 ± 0.13
SAGGGMTVVRITHPDGTPLTIEYDPNNPVATVHFADGTTETIPMPPDKTIEDLIAKLPEDAEVEVHDRSAGG [r13_696_JUSTAS]	1.19 ± 0.026	0.847 ± 0.14	0.321 ± 0.078
SAGGSAGGKIEIVFETPSGDIVPITYDPKTKKVDVTVRNKDGKPSEELKEKAIELAKKLIEELESAGGSAGG [r6_224_TrMRF]	1.05 ± 0.15	0.519 ± 0.26	0.29 ± 0.25
SAGGSAGTITIMFPIPPGKEVKMKFLFYIPDGYIFNVDITQTGPGYITITIPIYRLPENAKDPDLISAGGSA [r15_909_TrROS]	4.78 ± 0.18	4.43 ± 0.26	3.2 ± 0.3
SAGGMVYVVRLRDEDGTEYTALVEEFDGIYRVRLFDEDGELVEEREFESVEEAIDALLAEGYEVEVYPSAGG [r13_315_TrMRF]	4.881 ± 0.035	4.66 ± 0.07	4 ± 0.079
SAGGSAGGKKKTIVIKADSLEELKAALEALPEKVEVRLPNGETITLEVDGKKVEIKVISPEELKSAGGSAGG [r6_641_TrROS_Hall]	0.959 ± 0.048	0.753 ± 0.14	0.448 ± 0.039
SAGPEITREFVSYDPETGLRYFEYTLINKKNGKEVKKVKVGYSLYDLASGTERPLPEEELKKRAEEALKSAG [r5_909_JUSTAS]	0.433 ± 0.16	0.24 ± 0.16	-0.118 ± 0.13
SKKITIEIELYRNPETKKLPLKLKAYNENGEPLGELEIEFTESPEEALEKALALAKELAESNDAEITFGLSA [r9_31_TrMRF]	1.92 ± 0.036	1.76 ± 0.057	1.38 ± 0.041
SAGGSAGGSAGGMEVEYNPEELSPESEVTITVTLPGGEKVELKAKIYTNPDGSLSYELESAGGSAGGSAGGS [r10_390_JUSTAS]	1.58 ± 0.035	1.3 ± 0.053	0.697 ± 0.047
SAGMEVEYTLTFELPGGLALRVTAKVRFNPETNELEVLELKVELLPLPPAPPPFISPEEAEKNGLLPEESAG [r5_393_TrMRF]	4.44 ± 0.27	4.5 ± 0.35	3.81 ± 0.28
SAGKEVEIKIEIVIKMTPEELKKLAEELAKKLKEAGFEVEVTVEEKEVNGELYAVITVTVRLPPGAKPPSAG [r5_217_TrROS_Hall]	4.11 ± 0.26	3.67 ± 0.42	2.81 ± 0.36
SAGGPEVKILSKSYNPEKNTVTYNLEVYYGGKKYGALAEIHYDPKTGKYTITVYYPDKPDYKETLTFNSAGG [r13_615_TrMRF]	3.03 ± 0.079	2.58 ± 0.21	1.91 ± 0.077
SAGGSAGGSAGPNMVPIGKLTIEIRNPDNGNPLRIRIDLYVVPAPDGWMIALRILDIEPPSAGGSAGGSAGG [r11_113_TrROS]	4.15 ± 0.21	3.7 ± 0.26	2.45 ± 0.13
MTIEITIVAKTEEEAKEAAEELARKLAEELGLSEEELENLKIEVEKVEVTNEDGEKYYVVKIKIELPPEFKS [r1_81_TrROS_Hall]	3.61 ± 0.25	3.25 ± 0.4	2.93 ± 0.38
SWLKLPPGQKVITFQFQYPLPPGQSADDLVDNMEKELREFFGPGVKIEVNVQWDPNNGYFRVSVTIVIPKSA [r9_657_TrROS]	1.21 ± 0.17	1.63 ± 0.2	1.86 ± 0.057
SAGGSMKVYEFKSLEEIKKAIENLPPNEKYIVIKKNKNGKLEIIIVSKEEEEELKKKGVDFIIKVKSAGGSA [r2_351_TrROS_Hall]	2.21 ± 0.07	1.95 ± 0.43	0.788 ± 0.089
SAGKVIIIPAEKAEPELIKEILKKVPEGTEIRIAFAGPELVELLKELGFEVKPELVKPLTPEDLKKLLESAG [r5_354_TrMRF]	1.92 ± 0.092	1.59 ± 0.11	0.747 ± 0.062
SAGYIRIEKDNDYYKIEFLFPPNDPSLIENLVEAIRQKGWKVKDVEVEVEPNKDGMYRVEIDFKIKPPDSAG [r5_739_TrROS]	3.31 ± 0.099	2.88 ± 0.17	2.53 ± 0.12
SAGFKIVDVEPTDGRLEITIPIDKPGDALMFMVPFPNAKITPDPNGKITITIPPGGWYMIMIRLKKDASAGG [r19_227_TrROS]	2.67 ± 0.091	2.6 ± 0.14	2.33 ± 0.037
SAGGSAGGSPEAPADRKLVALLRSPDSDTVYLVEITPDGIVAYNANNEKTPVSPEYLVAVFDASAGGSAGGS [r20_35_TrMRF]	1.09 ± 0.054	1.02 ± 0.036	0.883 ± 0.012
EITIRNPNGMEVKKVEFDPPDSTIKFEFRMPDYYVKIEFQIYPVGGGWVIPIKIEIVPIPPTPAQRKKMQES [r1_154_TrROS]	3.4 ± 0.17	2.85 ± 0.25	1.44 ± 0.13

Sequence	folding stability dG unfold [1] [kcal/mol]	folding stability dG unfold [2] [kcal/mol]	folding stability dG unfold [3] [kcal/mol]
SAGGSAGGSAPPVVRVTVPLPDGSVLEVEYFPDTGLVRVTLVDADGTPTTVTLPAAEVLALFSAGGSAGGSA [r18_219_TrMRF]	3.026 ± 0.019	2.73 ± 0.045	2.04 ± 0.042
SAGGSAGGSMEIIPPEELLARLSPEELVLVRLPTAPRLLPREELRLLPRDIPVEVEVIPRLPPSAGGSAGGS [r12_501_TrMRF]	2.24 ± 0.1	1.5 ± 0.46	0.496 ± 0.23
SAGGSAGGSAGRVVKITLPDGSSLDIDVPADDDLTKEEIEARLTVPPGEKVSIKSIEILEESAGGSAGGSAG [r3_465_JUSTAS]	0.899 ± 0.033	0.628 ± 0.085	0.0468 ± 0.037
SAMKEAKIVSIEFDEETGTVTIEIEVPPGAKLKIRFLDTGEELEVEVKPGETITITVPKEPILIEIELESAG [r14_96_TrROS_Hall]	4.09 ± 0.24	3.79 ± 0.54	3.43 ± 0.18
SAGGSAGGSANFKILAVEVQPAGNGIMVRAIIEFPDGWIIKFSFWFRNDGIKINIEIVPLDDSAGGSAGGSA [r18_79_TrROS]	5.7 ± 0.12	5.68 ± 0.17	4.7 ± 0.15
SAGGSAGGLIEEILKEIGLSPEEVVKVEVEPIEEKENSLTVRVTAEFLLPDGSKKKIEAEFEIGSAGGSAGG [r6_774_TrMRF]	1.13 ± 0.082	1.21 ± 0.11	1.1 ± 0.06
SAGGSQKLPPGETIPIRIPGFQIEISPDKTTIHVMWPDPDEAKDFLKNLPFPIKIDKVEVMPPEDFSAGGSA [r2_418_TrROS]	1.01 ± 0.035	0.85 ± 0.11	0.515 ± 0.066
SAGGSAGGSMEENKPVVTLTTVEIYIESEVDPSLGKPLNPKKITVTLTTTVPPDGSTSTSTLFSAGGSAGGS [r12_438_JUSTAS]	1.67 ± 0.17	1.45 ± 0.19	1.11 ± 0.17
SAGFDWRTVKFPISPELRDKLKEDGFEIVGTSPNYITITVPVVPPPSPEELEEAEKEGMTWEEARDKASAGG [r19_115_TrROS]	-0.652 ± 0.82	-0.0214 ± 0.26	-0.0911 ± 0.091
SAGGSAGGSMKTEVTVDEEGKYTVTVTPPDGSTVNLVVPPGDPAAAVAAAKAAGLEVEDIKAASAGGSAGGS [r12_891_JUSTAS]	-0.241 ± 0.15	-0.21 ± 0.27	0.0357 ± 0.061
SAGGSAMPDNMKPVGSIPMVYLVPDGWIMRINYEYWKNPESGMWMINMDIEVFPLPKNDPELLKAISAGGSA [r15_207_TrROS]	2.65 ± 0.093	2.62 ± 0.18	2.42 ± 0.18
SAGGSAMKVIVTVKILDKGEVKTLTEEEAKKYLEEHPEEVKEVEVETTVESDATESFTDIDLNGLKSAGGSA [r15_99_JUSTAS]	0.462 ± 0.047	0.416 ± 0.23	-0.185 ± 0.21
SLTLTDPVLVLVEVDLYNPETGAPTKRSLAVLVPPGTPVTVTLPGVHPDARVRVTVYTPNGKPLGEFELPSA [r9_478_TrMRF]	2.12 ± 0.12	2.26 ± 0.14	2.1 ± 0.13
SAGGSAGGSASFTTTPVQFPDNTRVTTVTLDPETGTTIATVTSPSATSLVTIPGDTTTLTGSSAGGSAGGSA [r18_212_JUSTAS]	-0.246 ± 0.087	0.286 ± 0.045	0.551 ± 0.023
SKKPKVEIEIEIPSVISATPIPNTDEVLVNVPYRVKIKVIGEGPPKEVEVDLPGIMLVSDFIDELKKLLGSA [r9_656_TrMRF]	1.74 ± 0.046	1.74 ± 0.098	1.72 ± 0.072
SAGGSAGGSAGGVKPGQKVKVEIDGKTYEATVDEKNGTIYVTLPNGKKYKAKIVKVEKVSAGGSAGGSAGGS [r10_1185_TrROS_Hall]	2.64 ± 0.05	2.38 ± 0.12	1.79 ± 0.18
SAGGSMKVFVFEVKVEVEVKLDKDGNLTVEIKKVEVKPVKKIPLSEEELEKLREAKKKGLTLEEILSAGGSA [r2_327_TrROS_Hall]	3.26 ± 0.1	2.78 ± 0.18	2.07 ± 0.11
SAGGPPYYMIKIRYPDNGKEYEIPPGIKVHRDPNNEVYIMFRSPAAADDLVDEIAPTNGLRVEIEPFSAGGS [r8_131_TrROS]	1.07 ± 0.24	0.915 ± 0.3	0.945 ± 0.23
SAGGSAGGSMTTSTEVVELSGGSSLTVEREYTVEEVKVDDKWETVTHEVVTTPDSTTVREIKPSAGGSAGGS [r12_128_JUSTAS]	0.621 ± 0.068	0.526 ± 0.19	0.233 ± 0.063
SAGGSAKDILDQLKISDVHESNGMRTITLEMPGNNLPPDEIREIFEELGYEVEINPKNGRITFTIPSAGGSA [r15_599_TrROS]	1.83 ± 0.02	1.95 ± 0.039	2.09 ± 0.051
SAGGSAGGSAGWIWMKVTEVNPDDGTIKIKFDGQKIKIPAKNMKIREDGDYVEIEIPEDDSAGGSAGGSAGG [r17_403_TrROS]	0.242 ± 0.22	0.228 ± 0.11	0.137 ± 0.16
